# T1: Suv3 helicase (UniProt Q8IYB8 23-786, Alexa 647 label (site not stated) in the MST assay)
# T1 sequence (looked up): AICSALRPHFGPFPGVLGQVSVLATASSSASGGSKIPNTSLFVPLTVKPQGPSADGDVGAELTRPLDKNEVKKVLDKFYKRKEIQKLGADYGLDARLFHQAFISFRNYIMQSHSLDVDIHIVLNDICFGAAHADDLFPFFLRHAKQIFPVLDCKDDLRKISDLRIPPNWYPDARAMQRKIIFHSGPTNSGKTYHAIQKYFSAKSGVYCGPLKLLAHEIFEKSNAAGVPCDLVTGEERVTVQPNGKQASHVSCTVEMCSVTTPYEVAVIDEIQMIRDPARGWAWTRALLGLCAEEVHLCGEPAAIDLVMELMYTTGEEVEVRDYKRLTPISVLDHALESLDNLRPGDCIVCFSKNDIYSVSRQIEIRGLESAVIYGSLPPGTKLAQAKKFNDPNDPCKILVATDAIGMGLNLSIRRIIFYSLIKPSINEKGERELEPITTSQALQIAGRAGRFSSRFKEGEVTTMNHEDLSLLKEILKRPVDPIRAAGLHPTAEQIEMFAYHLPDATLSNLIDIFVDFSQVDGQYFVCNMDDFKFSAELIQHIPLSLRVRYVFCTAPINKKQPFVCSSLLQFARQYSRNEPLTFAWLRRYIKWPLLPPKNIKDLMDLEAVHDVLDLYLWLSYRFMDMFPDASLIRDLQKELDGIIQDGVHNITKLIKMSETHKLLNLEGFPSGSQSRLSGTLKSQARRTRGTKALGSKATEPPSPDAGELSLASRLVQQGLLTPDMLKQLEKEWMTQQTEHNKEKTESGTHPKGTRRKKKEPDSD
# How the values were obtained:
# SEC = molecular target: the molecule itself; assay: SEC
# Suv3 helicase = molecular target: T1, Suv3 helicase; assay: MST
# SAXS = molecular target: the molecule itself; assay: SAXS
Binder,stoichiometry N (SEC),Kd (Suv3 helicase) [nM],stoichiometry N (SAXS)
"human polynucleotide phosphorylase (hPNPase), wild type, residues 46-783 (enzyme, UniProt Q8TCS8 46-783, looked up) AVAVDLGNRKLEISSGKLARFADGSAVVQSGDTAVMVTAVSKTKPSPSQFMPLVVDYRQKAAAAGRIPTNYLRREIGTSDKEILTSRIIDRSIRPLFPAGYFYDTQVLCNLLAVDGVNEPDVLAINGASVALSLSDIPWNGPVGAVRIGIIDGEYVVNPTRKEMSSSTLNLVVAGAPKSQIVMLEASAENILQQDFCHAIKVGVKYTQQIIQGIQQLVKETGVTKRTPQKLFTPSPEIVKYTHKLAMERLYAVFTDYEHDKVSRDEAVNKIRLDTEEQLKEKFPEADPYEIIESFNVVAKEVFRSIVLNEYKRCDGRDLTSLRNVSCEVDMFKTLHGSALFQRGQTQVLCTVTFDSLESGIKSDQVITAINGIKDKNFMLHYEFPPYATNEIGKVTGLNRRELGHGALAEKALYPVIPRDFPFTIRVTSEVLESNGSSSMASACGGSLALMDSGVPISSAVAGVAIGLVTKTDPEKGEIEDYRLLTDILGIEDYNGDMDFKIAGTNKGITALQADIKLPGIPIKIVMEAIQQASVAKKEILQIMNKTISKPRASRKENGPVVETVQVPLSKRAKFVGPGGYNLKKLQAETGVTISQVDEETFSVFAPTPSAMHEARDFITEICKDDQEQQLEFGAVYTATITEIRDTGVMVKLYPNMTAVLLHNTQLDQRKIKHPTALGLEVGQEIQVKYFGRDPADGRMRLSRKVLQSPATTVVRTLNDRSSIVMGEPISQSSSNSQ",3,297 ± 80,
"hPNPase P467S-S484A double mutant, residues 46-783 (enzyme, human, UniProt Q8TCS8 46-783, looked up) AVAVDLGNRKLEISSGKLARFADGSAVVQSGDTAVMVTAVSKTKPSPSQFMPLVVDYRQKAAAAGRIPTNYLRREIGTSDKEILTSRIIDRSIRPLFPAGYFYDTQVLCNLLAVDGVNEPDVLAINGASVALSLSDIPWNGPVGAVRIGIIDGEYVVNPTRKEMSSSTLNLVVAGAPKSQIVMLEASAENILQQDFCHAIKVGVKYTQQIIQGIQQLVKETGVTKRTPQKLFTPSPEIVKYTHKLAMERLYAVFTDYEHDKVSRDEAVNKIRLDTEEQLKEKFPEADPYEIIESFNVVAKEVFRSIVLNEYKRCDGRDLTSLRNVSCEVDMFKTLHGSALFQRGQTQVLCTVTFDSLESGIKSDQVITAINGIKDKNFMLHYEFPPYATNEIGKVTGLNRRELGHGALAEKALYPVIPRDFSFTIRVTSEVLESNGSSAMASACGGSLALMDSGVPISSAVAGVAIGLVTKTDPEKGEIEDYRLLTDILGIEDYNGDMDFKIAGTNKGITALQADIKLPGIPIKIVMEAIQQASVAKKEILQIMNKTISKPRASRKENGPVVETVQVPLSKRAKFVGPGGYNLKKLQAETGVTISQVDEETFSVFAPTPSAMHEARDFITEICKDDQEQQLEFGAVYTATITEIRDTGVMVKLYPNMTAVLLHNTQLDQRKIKHPTALGLEVGQEIQVKYFGRDPADGRMRLSRKVLQSPATTVVRTLNDRSSIVMGEPISQSSSNSQ",3,,
"hPNPase D713Y-S484A double mutant, residues 46-783 (enzyme, human, UniProt Q8TCS8 46-783, looked up) AVAVDLGNRKLEISSGKLARFADGSAVVQSGDTAVMVTAVSKTKPSPSQFMPLVVDYRQKAAAAGRIPTNYLRREIGTSDKEILTSRIIDRSIRPLFPAGYFYDTQVLCNLLAVDGVNEPDVLAINGASVALSLSDIPWNGPVGAVRIGIIDGEYVVNPTRKEMSSSTLNLVVAGAPKSQIVMLEASAENILQQDFCHAIKVGVKYTQQIIQGIQQLVKETGVTKRTPQKLFTPSPEIVKYTHKLAMERLYAVFTDYEHDKVSRDEAVNKIRLDTEEQLKEKFPEADPYEIIESFNVVAKEVFRSIVLNEYKRCDGRDLTSLRNVSCEVDMFKTLHGSALFQRGQTQVLCTVTFDSLESGIKSDQVITAINGIKDKNFMLHYEFPPYATNEIGKVTGLNRRELGHGALAEKALYPVIPRDFPFTIRVTSEVLESNGSSAMASACGGSLALMDSGVPISSAVAGVAIGLVTKTDPEKGEIEDYRLLTDILGIEDYNGDMDFKIAGTNKGITALQADIKLPGIPIKIVMEAIQQASVAKKEILQIMNKTISKPRASRKENGPVVETVQVPLSKRAKFVGPGGYNLKKLQAETGVTISQVDEETFSVFAPTPSAMHEARDFITEICKDDQEQQLEFGAVYTATITEIRDTGVMVKLYPNMTAVLLHNTQLYQRKIKHPTALGLEVGQEIQVKYFGRDPADGRMRLSRKVLQSPATTVVRTLNDRSSIVMGEPISQSSSNSQ",3,,
"hPNPase G499R-S484A double mutant, residues 46-783 (enzyme, human, UniProt Q8TCS8 46-783, looked up) AVAVDLGNRKLEISSGKLARFADGSAVVQSGDTAVMVTAVSKTKPSPSQFMPLVVDYRQKAAAAGRIPTNYLRREIGTSDKEILTSRIIDRSIRPLFPAGYFYDTQVLCNLLAVDGVNEPDVLAINGASVALSLSDIPWNGPVGAVRIGIIDGEYVVNPTRKEMSSSTLNLVVAGAPKSQIVMLEASAENILQQDFCHAIKVGVKYTQQIIQGIQQLVKETGVTKRTPQKLFTPSPEIVKYTHKLAMERLYAVFTDYEHDKVSRDEAVNKIRLDTEEQLKEKFPEADPYEIIESFNVVAKEVFRSIVLNEYKRCDGRDLTSLRNVSCEVDMFKTLHGSALFQRGQTQVLCTVTFDSLESGIKSDQVITAINGIKDKNFMLHYEFPPYATNEIGKVTGLNRRELGHGALAEKALYPVIPRDFPFTIRVTSEVLESNGSSAMASACGGSLALMDSRVPISSAVAGVAIGLVTKTDPEKGEIEDYRLLTDILGIEDYNGDMDFKIAGTNKGITALQADIKLPGIPIKIVMEAIQQASVAKKEILQIMNKTISKPRASRKENGPVVETVQVPLSKRAKFVGPGGYNLKKLQAETGVTISQVDEETFSVFAPTPSAMHEARDFITEICKDDQEQQLEFGAVYTATITEIRDTGVMVKLYPNMTAVLLHNTQLDQRKIKHPTALGLEVGQEIQVKYFGRDPADGRMRLSRKVLQSPATTVVRTLNDRSSIVMGEPISQSSSNSQ",3,,
"hPNPase S484A mutant (inactive) (enzyme, human, UniProt Q8TCS8 46-783, looked up) AVAVDLGNRKLEISSGKLARFADGSAVVQSGDTAVMVTAVSKTKPSPSQFMPLVVDYRQKAAAAGRIPTNYLRREIGTSDKEILTSRIIDRSIRPLFPAGYFYDTQVLCNLLAVDGVNEPDVLAINGASVALSLSDIPWNGPVGAVRIGIIDGEYVVNPTRKEMSSSTLNLVVAGAPKSQIVMLEASAENILQQDFCHAIKVGVKYTQQIIQGIQQLVKETGVTKRTPQKLFTPSPEIVKYTHKLAMERLYAVFTDYEHDKVSRDEAVNKIRLDTEEQLKEKFPEADPYEIIESFNVVAKEVFRSIVLNEYKRCDGRDLTSLRNVSCEVDMFKTLHGSALFQRGQTQVLCTVTFDSLESGIKSDQVITAINGIKDKNFMLHYEFPPYATNEIGKVTGLNRRELGHGALAEKALYPVIPRDFPFTIRVTSEVLESNGSSAMASACGGSLALMDSGVPISSAVAGVAIGLVTKTDPEKGEIEDYRLLTDILGIEDYNGDMDFKIAGTNKGITALQADIKLPGIPIKIVMEAIQQASVAKKEILQIMNKTISKPRASRKENGPVVETVQVPLSKRAKFVGPGGYNLKKLQAETGVTISQVDEETFSVFAPTPSAMHEARDFITEICKDDQEQQLEFGAVYTATITEIRDTGVMVKLYPNMTAVLLHNTQLDQRKIKHPTALGLEVGQEIQVKYFGRDPADGRMRLSRKVLQSPATTVVRTLNDRSSIVMGEPISQSSSNSQ",,,3
"hPNPase G499R mutant, residues 46-783 (enzyme, human, UniProt Q8TCS8 46-783, looked up) AVAVDLGNRKLEISSGKLARFADGSAVVQSGDTAVMVTAVSKTKPSPSQFMPLVVDYRQKAAAAGRIPTNYLRREIGTSDKEILTSRIIDRSIRPLFPAGYFYDTQVLCNLLAVDGVNEPDVLAINGASVALSLSDIPWNGPVGAVRIGIIDGEYVVNPTRKEMSSSTLNLVVAGAPKSQIVMLEASAENILQQDFCHAIKVGVKYTQQIIQGIQQLVKETGVTKRTPQKLFTPSPEIVKYTHKLAMERLYAVFTDYEHDKVSRDEAVNKIRLDTEEQLKEKFPEADPYEIIESFNVVAKEVFRSIVLNEYKRCDGRDLTSLRNVSCEVDMFKTLHGSALFQRGQTQVLCTVTFDSLESGIKSDQVITAINGIKDKNFMLHYEFPPYATNEIGKVTGLNRRELGHGALAEKALYPVIPRDFPFTIRVTSEVLESNGSSSMASACGGSLALMDSRVPISSAVAGVAIGLVTKTDPEKGEIEDYRLLTDILGIEDYNGDMDFKIAGTNKGITALQADIKLPGIPIKIVMEAIQQASVAKKEILQIMNKTISKPRASRKENGPVVETVQVPLSKRAKFVGPGGYNLKKLQAETGVTISQVDEETFSVFAPTPSAMHEARDFITEICKDDQEQQLEFGAVYTATITEIRDTGVMVKLYPNMTAVLLHNTQLDQRKIKHPTALGLEVGQEIQVKYFGRDPADGRMRLSRKVLQSPATTVVRTLNDRSSIVMGEPISQSSSNSQ",,474 ± 70,3
"hPNPase D713Y mutant, residues 46-783 (enzyme, human, UniProt Q8TCS8 46-783, looked up) AVAVDLGNRKLEISSGKLARFADGSAVVQSGDTAVMVTAVSKTKPSPSQFMPLVVDYRQKAAAAGRIPTNYLRREIGTSDKEILTSRIIDRSIRPLFPAGYFYDTQVLCNLLAVDGVNEPDVLAINGASVALSLSDIPWNGPVGAVRIGIIDGEYVVNPTRKEMSSSTLNLVVAGAPKSQIVMLEASAENILQQDFCHAIKVGVKYTQQIIQGIQQLVKETGVTKRTPQKLFTPSPEIVKYTHKLAMERLYAVFTDYEHDKVSRDEAVNKIRLDTEEQLKEKFPEADPYEIIESFNVVAKEVFRSIVLNEYKRCDGRDLTSLRNVSCEVDMFKTLHGSALFQRGQTQVLCTVTFDSLESGIKSDQVITAINGIKDKNFMLHYEFPPYATNEIGKVTGLNRRELGHGALAEKALYPVIPRDFPFTIRVTSEVLESNGSSSMASACGGSLALMDSGVPISSAVAGVAIGLVTKTDPEKGEIEDYRLLTDILGIEDYNGDMDFKIAGTNKGITALQADIKLPGIPIKIVMEAIQQASVAKKEILQIMNKTISKPRASRKENGPVVETVQVPLSKRAKFVGPGGYNLKKLQAETGVTISQVDEETFSVFAPTPSAMHEARDFITEICKDDQEQQLEFGAVYTATITEIRDTGVMVKLYPNMTAVLLHNTQLYQRKIKHPTALGLEVGQEIQVKYFGRDPADGRMRLSRKVLQSPATTVVRTLNDRSSIVMGEPISQSSSNSQ",,3890 ± 545,3
